Laboratory results published in US11542479B2, “Alcohol dehydrogenase mutant and use thereof” (priority 2019, dated 2023).

Columns and labels:
Assay type in all cases: biochemical
[1] = molecular target: alcohol dehydrogenase (KpADH, SEQ ID NO: 1) mutant S5, Q136N/F161V/S196G/E214G/S237C (Vanderwaltozyma polyspora, UniProt A7TM80, E214G/F161V/Q136N/S196G/S237C); experiment: Kinetic parameters in asymmetric reduction of (4-chlorophenyl)-(pyridin-2-yl)-methanone, mutant S5; settings: mutant S5 vs wild type, to (S)-alcohol
Procedure: (§1) The detection method of enzyme activity of the alcohol dehydrogenase is as follows:
(§2) A sodium phosphate buffer (PBS, 100 mM, pH 7.0) containing 1 mM NADPH and 1.0 mM substrate prochiral (4-chlorophenyl)-(pyridin-2-yl)-methanone is stood at 30° C. for 2 min, and then 10 μL of a pure enzyme solution is added to the sodium phosphate buffer, and reacted at 30° C. During the reaction, the change in absorbance of the reaction solution at 340 nm is measured on a microplate reader, and used to calculate the enzyme activity.
(§3) The initial reduction activity of wild-type alcohol dehydrogenase and alcohol dehydrogenase mutants M63, M64 and S5 obtained in Example 1 were respectively determined with 0.1-5 mM prochiral diaryl ketone (4-chlorophenyl)-(pyridin-2-yl)-methanone as a substrate. The data was fitted by the nonlinear regression method in Graph Pad Prism 7.0 software, to obtain the Km and Vmax in Michaelis-Menten equation. Then kcat and kcat/Km were calculated.
(§4) kcat is calculated by the formula kcat=Vmax·M/60, where M is the molecular weight of the enzyme, in kDa.

[2] = molecular target: alcohol dehydrogenase (KpADH, SEQ ID NO: 1) mutant M63, K36I/T132D/N159D/K210E/T248A/Q272L (Vanderwaltozyma polyspora, UniProt A7TM80, K210E/K36I/N159D/Q272L/T132D/T248A); experiment: Kinetic parameters in asymmetric reduction of (4-chlorophenyl)-(pyridin-2-yl)-methanone, mutant M63; settings: mutant M63 vs wild-type alcohol dehydrogenase
Procedure: as §1, §2, §3, §4

[3] = molecular target: alcohol dehydrogenase (KpADH, SEQ ID NO: 1) mutant M64, K36I/T132D/N159D/K210E/T248A/Q272L/Q136N/F161V/S196G/E214G/S237C (Vanderwaltozyma polyspora, UniProt A7TM80, E214G/F161V/K210E/K36I/N159D/Q136N/Q272L/S196G/S237C/T132D/T248A); experiment: Kinetic parameters in asymmetric reduction of (4-chlorophenyl)-(pyridin-2-yl)-methanone, mutant M64
Procedure: as §1, §2, §3, §4

[4] = test system: O=C(c1ccc(Cl)cc1)c1ccccn1; experiment: Kinetic parameters in asymmetric reduction of (4-chlorophenyl)-(pyridin-2-yl)-methanone, mutant M63; settings: other: mutant M63; 0.1-5 mM substrate; pH 7.0; 30.0 °C
Procedure: as §1, §2, §3, §4

[5] = test system: O=C(c1ccc(Cl)cc1)c1ccccn1; experiment: Kinetic parameters in asymmetric reduction of (4-chlorophenyl)-(pyridin-2-yl)-methanone, mutant M64; settings: other: mutant M64; 0.1-5 mM substrate; pH 7.0; 30.0 °C
Procedure: as §1, §2, §3, §4

[6] = test system: O=C(c1ccc(Cl)cc1)c1ccccn1; experiment: Kinetic parameters in asymmetric reduction of (4-chlorophenyl)-(pyridin-2-yl)-methanone, mutant S5; settings: other: mutant S5; 0.1-5 mM substrate; pH 7.0; 30.0 °C
Procedure: as §1, §2, §3, §4

[7] = test system: O=C(c1ccc(Cl)cc1)c1ccccn1; experiment: Kinetic parameters in asymmetric reduction of (4-chlorophenyl)-(pyridin-2-yl)-methanone, wild type; settings: other: wild type; 0.1-5 mM substrate; pH 7.0; 30.0 °C
Procedure: as §1, §2, §3, §4

Compound: O=C(c1ccc(Cl)cc1)c1ccccn1 [(4-chlorophenyl)-(pyridin-2-yl)-methanone]
- catalytic efficiency compared with wild type [1]: decreased compared with the wild type
- catalytic efficiency relative to wild type [2]: 1.3 times
- catalytic efficiency relative to mutant S5 ([3]; mutant M64 vs mutant S5): 1.35 times
- catalytic efficiency compared with wild type ([3]; mutant M64 vs wild type, to (S)-alcohol): close to that of the wild type

Compound: alcohol dehydrogenase (KpADH, SEQ ID NO: 1) mutant M63, K36I/T132D/N159D/K210E/T248A/Q272L (Vanderwaltozyma polyspora DSM 70294; K210E/K36I/N159D/Q272L/T132D/T248A)
- Km [4]: 830 ± 200 µM
- Vmax [4]: 32.8 µmol/min/mg
- kcat [4]: 22.8 ± 2.14 s⁻¹
- kcat/Km [4]: 27500 M⁻¹ s⁻¹

Compound: alcohol dehydrogenase (KpADH, SEQ ID NO: 1) mutant M64, K36I/T132D/N159D/K210E/T248A/Q272L/Q136N/F161V/S196G/E214G/S237C (Vanderwaltozyma polyspora DSM 70294; E214G/F161V/K210E/K36I/N159D/Q136N/Q272L/S196G/S237C/T132D/T248A)
- Km [5]: 860 ± 140 µM
- Vmax [5]: 25.1 µmol/min/mg
- kcat [5]: 17.4 ± 1.1 s⁻¹
- kcat/Km [5]: 20300 M⁻¹ s⁻¹

Compound: alcohol dehydrogenase (KpADH, SEQ ID NO: 1) mutant S5, Q136N/F161V/S196G/E214G/S237C (Vanderwaltozyma polyspora DSM 70294; E214G/F161V/Q136N/S196G/S237C)
- Km [6]: 1090 ± 100 µM
- Vmax [6]: 24.4 µmol/min/mg
- kcat [6]: 16.1 ± 1.7 s⁻¹
- kcat/Km [6]: 14800 M⁻¹ s⁻¹

Compound: wild-type alcohol dehydrogenase (KpADH), SEQ ID NO: 1 (Vanderwaltozyma polyspora DSM 70294)
- Km [7]: 950 ± 100 µM
- Vmax [7]: 31.8 µmol/min/mg
- kcat [7]: 20.1 ± 1 s⁻¹
- kcat/Km [7]: 21200 M⁻¹ s⁻¹
